# Reference: paper PMC7269643 (Science Advances, 2020)
# B1: VapC22 toxin from Mycobacterium tuberculosis, expressed alone from a modified pBAD/Myc-His vector (enzyme)
# chain: MTTVLLDSHVAYWWSAEPQRLSMAASQAIEHADELAVAAISWFELAWLAEQERIQLAIPVLSWLQQLAEHVRTVGITPSVAATAVALPSSFPGDPADRLIYATAIEHGWRLVTKDRRLRSHRHPRPVTVW
# Target: the molecule itself
# Assay: AUC
protein,measurement,value
B1,stoichiometry N,2
